Reference: US20250340613A1 (JOINT STOCK COMPANY BIOCAD, published 2025)
Each block holds one binder with its values, some of them ahead of it.

Key:
[1] = biological target: T1, hCD38-Avi, ADP-ribosyl cyclase/cyclic ADP-ribose hydrolase 1 (Homo sapiens) aa 43-300 (Homo sapiens, UniProt P28907 43-300); assay: BLI Octet RED 384; antibody on ProA sensor, antigen 30 ug/ml (854.7 nM); response at end of association
T1 construct: range 43-300; not shown: Avi tag as the name implies
T1 sequence (looked up): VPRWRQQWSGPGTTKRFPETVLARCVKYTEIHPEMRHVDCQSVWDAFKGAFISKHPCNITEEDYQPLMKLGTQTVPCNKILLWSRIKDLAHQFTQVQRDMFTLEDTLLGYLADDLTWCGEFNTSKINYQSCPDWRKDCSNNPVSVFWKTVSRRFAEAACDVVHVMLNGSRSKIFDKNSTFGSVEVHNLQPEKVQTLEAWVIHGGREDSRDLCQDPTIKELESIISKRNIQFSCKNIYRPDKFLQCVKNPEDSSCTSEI
Method: (§1) Experimental study of nonspecific binding of bispecific chimeric antibodies to non-target antigens was performed on Forte Bio Octert RED 384. Protein A (ProA) biosensors (ForteBio) were immersed into a solution containing antibodies at a concentration of 10 μg/ml for 150 seconds to immobilize same. The baseline was recorded in a 1×KB solution for 30 seconds. The antibody-loaded sensors were then immersed into wells containing non-target antigens at a concentration of 30 μg/ml for 150 seconds. Complex dissociation was then recorded for 30 seconds.
(§2) The reference sensors went through all the steps as the sensors used to record analyte sensograms did, with the exception of the association step—at the association step, the sensors were immersed in a kinetic buffer solution without analyte (the reference sensor signals were measured in parallel with the recording of the main sensograms). The reference signal was subtracted from the signal received on sensors interacting with the analyte during the processing of sensograms.
(§3) Sensograms were processed using ForteBio Octet Data Analysisn 9.0 software. To report no non-specific interaction, the recorded signal level was checked at the end of the association step (the response parameter).

[2] = biological target: T2, extracellular domain of the human PD-1 protein (hPD1ex-H6F) (Homo sapiens, UniProt Q15116 21-170); assay: BLI Octet RED 384; antibody on ProA sensor, antigen 30 ug/ml (1456 nM); response at end of association
T2 construct: Molecular weight 20.6 kDa; made in CHO cells; also called hPDlex-H6F; not shown: C-terminal His and FLAG tags
T2 sequence (Q15116 21-170 limits assumed, form in doubt): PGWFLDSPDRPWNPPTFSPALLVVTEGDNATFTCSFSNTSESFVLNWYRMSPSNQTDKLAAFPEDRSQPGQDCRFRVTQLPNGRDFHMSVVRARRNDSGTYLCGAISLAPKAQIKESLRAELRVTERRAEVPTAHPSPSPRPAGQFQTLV
Method: as §1, §2, §3

[3] = biological target: T3, C-Avi-His-TEVs-HSA_hBCMA, Tumor necrosis factor receptor superfamily member 17 (Homo sapiens) aa 1-54 (Homo sapiens, UniProt Q02223 1-54); assay: BLI Octet RED 384; antibody on ProA sensor, antigen 30 ug/ml (391.2 nM); response at end of association
T3 construct: range 1-54; not shown: Avi, His, TEV site and HSA parts as the name implies
T3 sequence (looked up): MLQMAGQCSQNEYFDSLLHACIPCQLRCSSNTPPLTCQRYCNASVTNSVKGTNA
Method: as §1, §2, §3

[4] = biological target: T4, hisOX40, Tumor necrosis factor receptor superfamily member 4 (Homo sapiens) aa 26-210 (Homo sapiens, UniProt P43489 26-210); assay: BLI Octet RED 384; antibody on ProA sensor, antigen 30 ug/ml (1310 nM); response at end of association
T4 construct: range 26-210; The tag is put first only because the name begins with His; not shown: His tag as the name implies
T4 sequence (looked up): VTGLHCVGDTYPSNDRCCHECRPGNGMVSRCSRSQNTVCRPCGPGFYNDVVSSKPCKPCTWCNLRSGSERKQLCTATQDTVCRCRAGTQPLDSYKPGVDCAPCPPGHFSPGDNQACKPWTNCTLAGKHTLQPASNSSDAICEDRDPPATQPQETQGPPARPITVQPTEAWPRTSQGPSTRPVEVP
Method: as §1, §2, §3

[5] = biological target: T5, extracellular domain of the human CSF1R protein (hCSF1R_His) (Homo sapiens, UniProt P07333 20-512); assay: BLI Octet RED 384; antibody on ProA sensor, antigen 30 ug/ml (522.5 nM); response at end of association
T5 construct: range 20-512; Molecular weight 57.4 kDa; made in CHO cells; also called hCSF1_His; not shown: C-terminal His and FLAG tags
T5 sequence (P07333 20-512 limits assumed): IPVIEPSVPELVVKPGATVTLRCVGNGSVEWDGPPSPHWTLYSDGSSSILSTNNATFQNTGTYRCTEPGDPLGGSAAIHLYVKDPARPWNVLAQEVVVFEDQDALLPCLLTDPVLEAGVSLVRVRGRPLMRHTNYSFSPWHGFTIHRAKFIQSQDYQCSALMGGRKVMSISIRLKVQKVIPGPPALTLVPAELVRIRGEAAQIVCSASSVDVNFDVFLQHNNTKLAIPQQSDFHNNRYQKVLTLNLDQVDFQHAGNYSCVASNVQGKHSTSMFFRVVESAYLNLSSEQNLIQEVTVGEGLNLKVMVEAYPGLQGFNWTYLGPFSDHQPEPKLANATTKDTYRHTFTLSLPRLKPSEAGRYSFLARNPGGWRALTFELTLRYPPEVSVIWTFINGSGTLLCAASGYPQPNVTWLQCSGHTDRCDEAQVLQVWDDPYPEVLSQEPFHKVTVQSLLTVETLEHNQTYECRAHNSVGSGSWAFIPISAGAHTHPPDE
Method: as §1, §2, §3

[6] = biological target: T6, IL5R-His, Interleukin-5 receptor subunit alpha (Homo sapiens) aa 22-342 (Homo sapiens, UniProt Q01344 22-342); assay: BLI Octet RED 384; antibody on ProA sensor, antigen 30 ug/ml (757.6 nM); response at end of association
T6 construct: not shown: His tag as the name implies
T6 sequence (looked up): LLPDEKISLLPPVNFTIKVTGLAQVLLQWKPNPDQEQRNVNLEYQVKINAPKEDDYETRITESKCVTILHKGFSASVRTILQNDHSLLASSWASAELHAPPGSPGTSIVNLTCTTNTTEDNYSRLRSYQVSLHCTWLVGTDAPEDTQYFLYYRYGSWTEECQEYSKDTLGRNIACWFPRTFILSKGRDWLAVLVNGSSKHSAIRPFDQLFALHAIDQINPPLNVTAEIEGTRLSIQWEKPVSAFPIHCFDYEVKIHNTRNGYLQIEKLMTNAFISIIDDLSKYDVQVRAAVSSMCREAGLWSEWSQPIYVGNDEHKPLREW
Method: as §1, §2, §3

[7] = biological target: T7, Her3-H6F, Receptor tyrosine-protein kinase erbB-3 (Homo sapiens) aa 21-643 (Homo sapiens, UniProt P21860 21-643); assay: BLI Octet RED 384; antibody on ProA sensor, antigen 30 ug/ml (420.8 nM); response at end of association
T7 construct: not shown: His and FLAG tags implied by the name 'H6F'
T7 sequence (P21860 21-643 limits assumed): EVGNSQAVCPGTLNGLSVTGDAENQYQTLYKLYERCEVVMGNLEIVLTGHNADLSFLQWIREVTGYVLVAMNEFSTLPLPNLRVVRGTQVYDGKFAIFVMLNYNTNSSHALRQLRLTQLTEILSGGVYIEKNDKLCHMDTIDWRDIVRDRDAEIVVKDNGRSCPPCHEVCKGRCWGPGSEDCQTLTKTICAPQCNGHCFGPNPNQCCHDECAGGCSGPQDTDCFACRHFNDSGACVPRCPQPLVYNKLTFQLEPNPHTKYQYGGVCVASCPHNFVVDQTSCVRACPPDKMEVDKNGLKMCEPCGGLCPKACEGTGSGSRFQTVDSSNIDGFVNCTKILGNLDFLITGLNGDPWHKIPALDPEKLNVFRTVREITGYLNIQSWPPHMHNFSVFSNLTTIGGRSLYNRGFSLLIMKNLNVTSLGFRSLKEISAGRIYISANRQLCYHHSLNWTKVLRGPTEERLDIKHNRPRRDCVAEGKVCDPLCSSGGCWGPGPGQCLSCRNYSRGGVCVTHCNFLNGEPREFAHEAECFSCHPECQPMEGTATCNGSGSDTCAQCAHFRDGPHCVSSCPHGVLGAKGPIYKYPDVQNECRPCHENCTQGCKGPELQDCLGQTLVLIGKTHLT
Method: as §1, §2, §3

[8] = biological target: T8, Macaca CSF1R_C-His, Macrophage colony-stimulating factor 1 receptor (Macaca mulatta) aa 20-513 (Macaca mulatta); assay: BLI Octet RED 384; antibody on ProA sensor, antigen 30 ug/ml (534.8 nM); response at end of association
T8 construct: range 20-513
Method: as §1, §2, §3

[9] = biological target: T9, hIL4R-His, Interleukin-4 receptor subunit alpha (Homo sapiens) aa 27-227 (Homo sapiens, UniProt P24394 27-227); assay: BLI Octet RED 384; antibody on ProA sensor, antigen 30 ug/ml (1154 nM); response at end of association
T9 construct: range 27-227; not shown: His tag as the name implies
T9 sequence (looked up): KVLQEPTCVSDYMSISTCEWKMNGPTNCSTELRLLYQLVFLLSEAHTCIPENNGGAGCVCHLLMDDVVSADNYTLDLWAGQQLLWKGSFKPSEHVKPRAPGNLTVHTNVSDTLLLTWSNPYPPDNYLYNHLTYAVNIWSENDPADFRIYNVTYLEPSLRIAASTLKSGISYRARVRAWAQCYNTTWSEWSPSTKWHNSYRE
Method: as §1, §2, §3

Signal level (nm) [1]: 0.0158 nm
Signal level (nm) [2]: 0.144 nm
Signal level (nm) [5]: 0.573 nm
Signal level (nm) [6]: 0.0153 nm
Signal level (nm) [7]: -0.0115 nm
Signal level (nm) [8]: 0.587 nm
Signal level (nm) [9]: -0.0075 nm
B1: 02-006, bivalent bispecific chimeric antibody that specifically binds to PD1 and CSF1R (bispecific antibody, human IgG1, kappa, L234A L235A)
heavy 1: QVQLVQSGGGLVQPGGSLRLSCAASGFTFSSYWMYWVRQVPGKGLEWVSAIDTGGGRTYYADSVKGRFAISRVNAKNTMYLQMNSLRAEDTAVYYCARDEGGGTGWGVLKDWPYGLDAWGQGTLVTVSSASTKGPSVFPLAPSSKSTSGGTAALGCLVKDYFPEPVTVSWNSGALTSGVHTFPAVLQSSGLYSLSSVVTVPSSSLGTQTYICNVNHKPSNTKVDKRVEPKSCDKTHTCPPCPAPEAAGGPSVFLFPPKPKDTLYITREPEVTCVVVDVSHEDPEVKFNWYVDGVEVHNAKTKPREEQYNSTYRVVSVLTVLHQDWLNGKEYKCKVSNKALPAPIEKTISKAKGQPREPQVCTLPPSRDELTKNQVSLSCAVKGFYPSDIAVEWESNGQPENNYKTTPPVLDSDGSFFLVSKLTVDKSRWQQGNVFSCSVMHEALHNHYTQKSLSLSPGK
light 1: QPVLTQPLSVSVALGQTARITCGGNNIGSKNVHWYQQKPGQAPVLVIYRDSNRPSGIPERFSGSNSGNTATLTISRAQAGDEADYYCQVWDSSTAVFGTGTKLTVLQRTVAAPSVFIFPPSDEQLKSGTASVVCLLNNFYPREAKVQWKVDNALQSGNSQESVTEQDSKDSTYSLSSTLTLSKADYEKHKVYACEVTHQGLSSPVTKSFNRGEC
heavy 2: not shown
light 2: QAGLTQPPSVSVAPGQTARITCGGNNIGSKSVHWYQQKPGQAPVLVVYGDSDRPSGIPERFSGSNSGNTATLTISRVEAGDEADYYCQVWDISSDHVVFGGGTQLTVLQRQVKPEAWLSSGPSPGPGRLQLVCHVSGFYPKPVWVMWMRGEQEQQGTQLGDILPNANWTWYLRATLDVADGEAAGLSCRVKHSSLEGQDIILYWRGSC
notes: Produced in CHO cells
Signal level (nm) [3]: 0.0009 nm
Signal level (nm) [4]: -0.0094 nm

Signal level (nm) [1]: 0.0088 nm
Signal level (nm) [2]: 0.172 nm
Signal level (nm) [5]: 0.537 nm
Signal level (nm) [6]: 0.0221 nm
Signal level (nm) [7]: -0.0063 nm
Signal level (nm) [8]: 0.535 nm
Signal level (nm) [9]: 0.0051 nm
B2: 02-007, bivalent bispecific chimeric antibody that specifically binds to PD1 and CSF1R (bispecific antibody, human IgG1, kappa, L234A L235A)
heavy 1: QVQLVESGGGLVRPGGSLRLSCAASEFTFDDYAMSWVRQAPGKGLEWVSAISWNGGSTNYADSVKGRFTISRDNAKNSLYLQMNSLRAEDTALYYCASTVEVAHRRLYKYLEVWGQGTLVTVSSASTKGPSVFPLAPSSKSTSGGTAALGCLVKDYFPEPVTVSWNSGALTSGVHTFPAVLQSSGLYSLSSVVTVPSSSLGTQTYICNVNHKPSNTKVDKRVEPKSCDKTHTCPPCPAPEAAGGPSVFLFPPKPKDTLYITREPEVTCVVVDVSHEDPEVKFNWYVDGVEVHNAKTKPREEQYNSTYRVVSVLTVLHQDWLNGKEYKCKVSNKALPAPIEKTISKAKGQPREPQVCTLPPSRDELTKNQVSLSCAVKGFYPSDIAVEWESNGQPENNYKTTPPVLDSDGSFFLVSKLTVDKSRWQQGNVFSCSVMHEALHNHYTQKSLSLSPGK
light 1: QAGLTQPPSVSVAPGQTARITCGGNNIGSKSVHWYQQKPGQAPVLVVYGDSDRPSGIPERFSGSNSGNTATLTISRVEAGDEADYYCQVWDISSDHVVFGGGTQLTVLRTVAAPSVFIFPPSDEQLKSGTASVVCLLNNFYPREAKVQWKVDNALQSGNSQESVTEQDSKDSTYSLSSTLTLSKADYEKHKVYACEVTHQGLSSPVTKSFNRGEC
heavy 2: not shown
light 2: QPVLTQPLSVSVALGQTARITCGGNNIGSKNVHWYQQKPGQAPVLVIYRDSNRPSGIPERFSGSNSGNTATLTISRAQAGDEADYYCQVWDSSTAVFGTGTKLTVLQQRQVKPEAWLSSGPSPGPGRLQLVCHVSGFYPKPVWVMWMRGEQEQQGTQLGDILPNANWTWYLRATLDVADGEAAGLSCRVKHSSLEGQDIILYWRGSC
notes: Produced in CHO cells
Signal level (nm) [3]: 0.0061 nm
Signal level (nm) [4]: -0.0056 nm
